{"source": "patent US20220064302A1", "about": "(GIGAGEN, published 2022)", "binders": {"B1": {"name": "A23 (antibody, V domains shown)", "VH": "QVQLVESGGGVVQPGRSLRLSCVASGFTFSNYGMHWVRQAPGKGLEWVAIIWYDGSIKYYADSVKGRFTISRDNSKNTLHLQMNSLRAEDTAVYYCARWGIYFDYWGQGTLVTVSS", "VL": "EIVMTQSPATLSVSPGERATLSCRASQSVSSNLAWYQQKPGQAPRLLIYGASTRATGIPARFSGSGSGTEFTLTISSLQSEDFAVYYCQQYHNWPLTFGGGTKVEIK", "notes": "Tested as full-length mAb expressed in CHO cells; also called antibody 23; L23H23"}, "B2": {"name": "A24 (antibody, V domains shown)", "VH": "QVQLVESGGGVVQPGRSLRLSCAASGFTFSDSGMHWVRQAPGKGLEWVAVIWYDGSKKYYVDSVKGRFTISRDNSKNTLYLQMNSLRAEDTAVYYCATEGDYWGQGTLVTVSS", "VL": "B1 VL with S14F, A34G, I48M, A55V, H92N, N93T, L96R, G100Q", "notes": "Tested as full-length mAb expressed in CHO cells; also called antibody 24; L24H24"}, "B3": {"name": "A26 (antibody, V domains shown)", "VH": "QVQLVESGGGVVQPGRSLRLSCAASGFTFSDYGMHWVRQAPGKGLEWVAVIWYDGSNKYYTDSVKGRFTISRDNSKNTLYLQMSSLRAEDAAVYYCAVNPFDYWGQGTLVTVSS", "VL": "DIQMTQSPSSLSASVGDRVTISCRASQGISNYLAWYQQKPGKVPKVLIYGASTLQSGVPSRFSGSGSGTDFTLTISSLQPEDVATYYCQKYNSAPYTFGQGTKLEIK", "notes": "Tested as full-length mAb expressed in CHO cells; also called antibody 26; L26H26"}, "B4": {"name": "A16 (antibody, V domains shown)", "VH": "QVQLVESGGGVVQPGRSLTLSCAASGFTFSNYGMYWVRQAPGKGLEWVAVIWYDGSNKYYADSVKGRFTISRDNSKNTLYLQMNSLRAEDTAVYYCAGGGSYSGDYWGQGTLVTVSS", "VL": "DIQMTQSPSSLSASVGDRVTITCRTSQDIRNDLGWYQQKPGKAPKRLIYAVSSLQSGVPSRFSGSGSGTEFTFTISSLQPEDFATYYCLQYNTYPFTFGPGTTVDIK", "notes": "Tested as full-length mAb expressed in CHO cells; also called antibody 16; L16H16"}, "B5": {"name": "A17 (antibody, V domains shown)", "VH": "B4 VH with T19R, N31S, Y35H, K58Q, Y80F, Y95F, S101N, S103Y, Y106F", "VL": "B4 VL with T25A, D28G, V51A, F73L, N92I, T93S, F96W, P100Q, T103K, D105E", "notes": "Tested as full-length mAb expressed in CHO cells; also called antibody 17; L17H17"}, "B6": {"name": "A27 (antibody, V domains shown)", "VH": "QVQLVQSGAELVRPGTSVKLSCRASGYTFTTYWMHWVKQRPGQGLEWIGVIDPSDSYTYYNQKFKGKATLTVDTSSSTAYMQLSSLTSEDSAVYFCARNWDYWGQGTTLTVSS", "VL": "AIQLTQSPSSLSASVGDRVTITCRASQGISSALAWYQQKPGKAPKLLIYDASSLESGVPSRFSGSGSGTDFTLTISSLQPEDFATYYCQQFNDYALTFGGGTKVEIK", "notes": "Tested as full-length mAb expressed in CHO cells; also called antibody 27; L27H27"}, "B7": {"name": "A28 (antibody, V domains shown)", "VH": "QVQLVESGGGLVKPGGSLKLSCAASGFTFSDYGMHWVRQAPEKGLEWVAYISSGSFAIYYADTVRGRFTISRDSAKNTLFLQMTSLRSEDTAMYYCARRGPYPYYYSMDYWGQGTSVTVSS", "VL": "AIQMTQSPSSLSASVGDRVTITCRASQGISSALAWYQQKPGKAPKLLIYAASTLQSGVPSRFSGSGSGTDFTLTISSLQPEDFATYYCLQDYNYPWTFGQGTKVEIK", "notes": "Tested as full-length mAb expressed in CHO cells; also called antibody 28; L28H28"}, "B8": {"name": "A19 (antibody, V domains shown)", "VH": "QVQLVESGGGVVQPGRSLRLSCAASGFTFSNYGMYWVRQAPGKGLEWVAVIWYDGSNKYYADSVKGRFTISRDNSKNTLYLQMNSLRAEDTAVYYCAGGGDILTGDYWGQGTLVTVSS", "VL": "DIQMTQSPSSLSASVGDRVTITCRASQGIRNDLGWYQQKPGKAPKRLIYAASSLQSGVPSRFSGSGSGTEFTLTISSLQPEDFATYYCLQYKSYLYTFGQGTKLEIK", "notes": "Tested as full-length mAb expressed in CHO cells; also called antibody 19; L19H19"}, "B9": {"name": "A7 (antibody, V domains shown)", "VH": "QVQLVQSGAEVKKPGASVKVSCKASGYTFTSYGINWVRQAPGQGLEWMGWISAYNGNRNYAQNLQGRVTMTSDTSTNTAYMELRSLRSYDTAVYYCARDHYDILTGYYKGGFDYWGQGTLVTVSS", "VL": "not shown", "notes": "Tested as full-length mAb expressed in CHO cells; also called antibody A7; L7H7"}, "B10": {"name": "A2 (antibody, V domains shown)", "VH": "QVQLVESGGGVVQPGRSLRLSCAASGFTFSSYGMHWVRQAPGKGLEWVALISYDGSNKYYADSVKGRFTISRDNSKNTLYLQMNSLRAEDTAVYYCARGGYFDPYGDYYYGMDVWGQGTTVTVSS", "VL": "DIQMTQSPSSLSASVGDRVTITCRASQAIRNDLGWFQQKPGKAPKRLIYAASSLQSGVPLRFSGSGSGTEFTLTISSLQPEDFATYYCLQHNSFPWTFGQGTKVEIKR", "notes": "Tested as full-length mAb expressed in CHO cells; also called antibody A2; L2H2"}, "B11": {"name": "A5 (antibody, V domains shown)", "VH": "QVQLVESGGGVVQPGRSLRLSCAASGFTFSNYGTHWVRQAPGKGLEWVAVIWYDGSNKYYADSVKGRFTISRDNSKNTLYLQMNSLRAEDTAVYYCARDRIYCSSTRCIGFGYYYYGMDVWGQGTTVTVSS", "VL": "AIQLTQSPSSLSASVGDRVTITCRASQGISSALAWYQQKPGKAPKLLIYDASSLESGVPSRFSGSGSGTDFTLTISSLQPEDFATYYCQQFNNYPWTFGQGTKVEIKR", "notes": "Tested as full-length mAb expressed in CHO cells; also called antibody A5; L5H5"}, "B12": {"name": "A1 (antibody, V domains shown)", "VH": "B4 VH with T19R, Y35H, A61T, S101N, S103Y", "VL": "B10 VL with A28G, F36Y, A50V, L60S, F94Y, W96L, Q100G", "notes": "Tested as full-length mAb expressed in CHO cells; also called antibody A1; L1H1"}, "B13": {"name": "A3 (antibody, V domains shown)", "VH": "B4 VH with V11E, T19R, N31D, Y35H, S103W", "VL": "B10 VL with A28G, D32E, F36Y, L60S, N92Y, S93I, F94Y", "notes": "Tested as full-length mAb expressed in CHO cells; also called antibody A3; L3H3"}, "B14": {"name": "A11 (antibody, V domains shown)", "VH": "QVQLVQSGAEVKKPGASVKVSCRASGYTFTNYGISWVRQAPGQGLEWMGWISVYSDNTHYPQKLQGRVTMTTDTSTSTAYMELRSLRSDDTAVYYCARDGSHGDYYYVMDLWGQGTTVTVSS", "VL": "DIQMTQSPSSLSASVGDSITITCRASQGISSWLAWYQQKPEKAPKSLIYAASSLQSGVPSRFSGSGSGTDFTLTISSLQPEDFATYYCQQFNSYPYTFGQGTKLEIK", "notes": "Tested as full-length mAb expressed in CHO cells; also called antibody A11; L11H11"}}, "note": "Positions count from the first letter of the chain named."}
{"target": "T1, human PD-1 (soluble PD-1 protein, R&D Systems) (human, UniProt Q15116 25-170, limits assumed)", "T1 construct": "the kinetics paragraphs say only 'PD-1' / 'antigen'; also called hPD-1; soluble PD-1 immunogen", "T1 sequence (Q15116 25-170 limits assumed)": "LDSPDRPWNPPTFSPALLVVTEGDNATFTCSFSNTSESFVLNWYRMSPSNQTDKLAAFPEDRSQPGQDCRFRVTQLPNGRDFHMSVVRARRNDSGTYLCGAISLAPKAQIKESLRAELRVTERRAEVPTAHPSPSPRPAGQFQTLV", "assay": "BLI, mAb on AHC biosensor, PD-1 as analyte", "description": "The binding specificity and affinity of each full-length antibody towards PD-1 were determined using BLI and/or SPR. […] Anti-cyno PD-1 affinity was measured using BLI.\n(§1) For BLI, antibodies were loaded onto an Anti-Human IgG Fc (AHC) biosensor using the Octet Red96 system (ForteBio). Loaded biosensors were dipped into antigen dilutions beginning at 300 nM, with 6 serial dilutions at 1:3. Kinetic analysis was performed using a 1:1 binding model and global fitting.", "units": {"Kd": "nM"}}
{"binder": "B1", "Kd": 83.8}
{"binder": "B2", "Kd": 8.5}
{"binder": "B3", "Kd": 6}
{"binder": "B4", "Kd": 86}
{"binder": "B5", "Kd": 326}
{"binder": "B6", "Kd": 13.8}
{"binder": "B7", "Kd": 23.8}
{"binder": "B8", "Kd": 57.1}
{"target": "T1, human PD-1 (soluble PD-1 protein, R&D …)", "assay": "BLI (ForteBio), mAb on AHC biosensor, PD-1 as analyte", "description": "as §1", "units": {"Kd": "nM", "koff": "s⁻¹", "kon": "M⁻¹ s⁻¹"}}
{"binder": "B1", "Kd": 83.8, "koff": 0.00184, "kon": 22000}
{"binder": "B2", "Kd": 8.5, "koff": 0.00185, "kon": 217000}
{"binder": "B3", "Kd": 5.98, "koff": 0.00104, "kon": 174000}
{"binder": "B4", "Kd": 86, "koff": 0.00655, "kon": 76100}
{"binder": "B5", "Kd": 326, "koff": 0.0079, "kon": 24200}
{"binder": "B6", "Kd": 13.8, "koff": 0.000972, "kon": 70400}
{"binder": "B7", "Kd": 23.8, "koff": 0.00418, "kon": 176000}
{"binder": "B8", "Kd": 57.1, "koff": 0.00107, "kon": 18700}
{"target": "T1, human PD-1 (soluble PD-1 protein, R&D …)", "assay": "array SPR, mAb captured on anti-human IgG Fc, PD-1 as analyte", "description": "(§2) For SPR, a moderate density (»1,000 Response Units) of an antihuman IgG-Fc reagent (Southern Biotech 2047-01) was amine-coupled to a Xantec CMD-50M chip (50 nm carboxymethyldextran medium density of functional groups) activated with 133 mM EDC (Sigma) and 33.3 mM S-NHS (ThermoFisher) in 100 mM MES pH 5.5. Then, goat anti-Human IgG Fc (Southern Biotech 2047-01) was coupled for 10 minutes at […] in 10 mM Sodim Acetate pH 4.5 (Carterra Inc.). The surface was then deactivated with 1 M ethanolamine pH 8.5 (Carterra Inc.). Running buffer used for the lawn immobilization was HBS-EPC (10 mM HEPES, 150 mM NaCl, 3 mM EDTA, 0.05% Tween 20, pH 7.4; Teknova).\n(§3) The sensor chip was then transferred to a continuous flow microspotter (CFM; Carterra Inc.) for array capturing. The mAb supernatants were diluted 50-fold ([…] final concentration) into HBS-EPC with 1 mg/mL BSA. The samples were each captured twice with 15-minute and 4-minute capture steps on the first and second prints, respectively, to create multiple densities, using a […] flow rate. The running buffer in the CFM was also HBS-EPC.\n(§4) Next, the sensor chip was loaded onto an SPR reader (MX-96 system; Ibis Technologies) for the kinetic analysis. […] PD-1 injections were 5 minutes with a 15-minute dissociation at […] in a non-regenerative kinetic series. An injection of the goat anti-Human IgG Fc capture antibody at […] was injected at the end of the series to verify the capture level of each mAb. Binding data was double referenced by subtracting an interspot surface and a blank injection and analyzed for ka (on-rate), kd (off-rate), and KD (affinity) using the Kinetic Interaction Tool software (Carterra Inc.).", "units": {"Kd": "nM"}}
{"binder": "B9", "Kd": 160}
{"binder": "B10", "Kd": 130}
{"binder": "B11", "Kd": 35}
{"binder": "B12", "Kd": 3.7}
{"binder": "B13", "Kd": 230}
{"binder": "B14", "binding result": "no binding (tested: PD-1 injected up to 500 nM)"}
{"target": "PD-1 expressed on cells (human, UniProt Q15116 25-288)", "sequence (Q15116 25-288 limits assumed)": "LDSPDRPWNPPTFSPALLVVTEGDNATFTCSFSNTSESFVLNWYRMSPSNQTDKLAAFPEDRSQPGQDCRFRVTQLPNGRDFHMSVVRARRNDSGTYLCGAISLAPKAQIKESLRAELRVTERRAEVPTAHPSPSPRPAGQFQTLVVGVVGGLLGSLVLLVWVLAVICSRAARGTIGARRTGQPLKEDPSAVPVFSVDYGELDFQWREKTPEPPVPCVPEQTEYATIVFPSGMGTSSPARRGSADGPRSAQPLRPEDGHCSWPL", "assay": "cell-based or functional assay", "units": {"PD-1/PD-L1 blockage (IC50, µg/ml)": "µg/mL"}}
{"binder": "B1", "PD-1/PD-L1 blockage (IC50, µg/ml)": 0.116}
{"binder": "B2", "PD-1/PD-L1 blockage (IC50, µg/ml)": 0.266}
{"binder": "B3", "PD-1/PD-L1 blockage (IC50, µg/ml)": 0.641}
{"binder": "B11", "PD-1/PD-L1 blockage (IC50, µg/ml)": 1.31}
{"binder": "B4", "PD-1/PD-L1 blockage (IC50, µg/ml)": 0.556}
{"binder": "B5", "PD-1/PD-L1 blockage (IC50, µg/ml)": 0.533}
{"binder": "B12", "PD-1/PD-L1 blockage (IC50, µg/ml)": 2.39}
{"binder": "B13", "PD-1/PD-L1 blockage (IC50, µg/ml)": 1.34}
{"binder": "B6", "PD-1/PD-L1 blockage (IC50, µg/ml)": 0.528}
{"binder": "B7", "PD-1/PD-L1 blockage (IC50, µg/ml)": 0.542}
{"binder": "B14", "PD-1/PD-L1 blockage (IC50, µg/ml)": 1.31}
{"binder": "B8", "PD-1/PD-L1 blockage (IC50, µg/ml)": "> 3.16"}
{"target": "T1, human PD-1 (soluble PD-1 protein, R&D …)", "assay": "array SPR (Carterra), mAb captured, PD-1 as analyte", "description": "as §2, §3, §4", "units": {"Kd": "nM", "koff": "s⁻¹", "kon": "M⁻¹ s⁻¹"}}
{"binder": "B9", "Kd": 160, "koff": 0.002, "kon": 12000}
{"binder": "B10", "Kd": 130, "koff": 0.011, "kon": 80000}
{"binder": "B11", "Kd": 35, "koff": 0.00023, "kon": 6400}
{"binder": "B12", "Kd": 3.7, "koff": "2.6e-05", "kon": 7000}
{"binder": "B13", "Kd": 230, "koff": 0.0024, "kon": 10000}
